B1: C1orf137 (parent)
chain: RQHHHQSSFPGSLPQETNLTLKVC

Variants of: B1
Test: protein stability index of a GFP-peptide fusion (GPS, HEK-293T) (PSI 1-6); higher = more stable
Settings: c terminus: a fixed tail appended
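Further: lentivirally expressed fusions sorted by FACS into six bins by GFP to DsRed ratio, PSI derived from sequencing read proportions per bin multiplied by bin number.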

Protein stability index of substitutions, site by site:
Q6: H 3.36; I 2.37; K 3.15; L 2.49; M 2.23; N 2.71; P 2.55; R 4.03; S 3.25; T 2.49; V 2.89; W 2.27; Y 2.9
S7: A 2.71; C 2.43; D 3.23; E 2.3; F 2.36; G 3.18; H 2.83; I 2.77; K 3.11; L 2.79; M 2.43; N 3.68; P 3.52; Q 3.05; R 3.34; T 3.34; V 2.89; W 2.43; Y 2.54
S8: A 2.81; C 2.67; D 2.89; E 3.85; F 1.84; G 2.47; H 2.45; I 3.03; K 3.07; L 2.45; M 2.68; N 3.08; P 2.71; Q 2.9; R 2.57; T 2.71; V 2.78; W 2; Y 2.02
F9: A 3.97; C 3.16; D 4.08; G 4.03; H 3.64; I 3.3; K 4.33; L 3.53; M 3.18; N 3.88; P 3.38; R 3.7; S 3.16; T 3.42; V 3.46; W 3.27; Y 3.41
P10: A 3.24; C 2.38; D 2.99; E 2.6; F 2.27; H 2.77; I 2.56; K 3.44; L 2.25; M 2.19; N 2.69; Q 3.06; R 3.75; S 3.46; T 3.25; V 2.65; W 1.99; Y 2.4
G11: A 2.21; C 2.61; D 2.25; E 4.03; F 2.28; H 2.98; I 2.85; K 3.79; L 2.72; M 3.24; N 3.01; P 2.53; Q 3.07; R 2.44; S 2.9; T 2.66; V 2.98; W 2.24; Y 1.95
S12: A 3.19; C 2.37; D 3.19; E 3.46; F 2.41; G 2.96; H 2.38; I 2.41; K 2.98; L 2.66; M 2.73; N 2.99; P 2.82; Q 2.55; R 3.17; T 2.99; V 3.38; W 2.44; Y 2.27
L13: A 2.72; C 2.79; D 4; E 3.23; F 2.78; G 2.98; H 3.21; I 3.2; K 3.16; M 3.29; N 3.71; P 3.42; Q 2.89; R 2.97; S 3.57; T 3.51; V 3.65; W 3.13; Y 2.66
P14: A 3.15; C 2.85; D 3.55; E 3.17; F 2; G 3.18; H 2.37; I 2.24; K 3.13; L 2.29; M 2.02; N 2.54; Q 3.44; R 2.4; S 2.72; T 2.71; V 2.55; W 1.62; Y 2.11
Q15: A 2.03; C 2.56; D 3.26; E 3.65; F 1.71; G 2.19; H 2.51; I 2.53; K 2.46; L 2.19; M 2.29; N 2.47; P 3.05; R 2.54; S 3.36; T 3.34; V 2.6; W 2.29; Y 2.28
E16: A 2.33; C 1.47; D 3.63; F 2.28; G 2.39; H 2.87; I 1.75; K 2.57; L 1.7; M 2.48; N 2.8; P 2.99; Q 2.57; R 2.34; S 2.63; T 2.69; V 1.57; W 1.55; Y 1.72
T17: A 2.87; C 2.46; D 3.89; E 3.95; F 2.49; G 3.28; H 2.39; I 1.17; K 3.54; L 1.57; M 2.44; N 3.15; P 2.98; Q 3.24; R 3.28; S 3.02; V 2.17; W 1.41; Y 2.09
N18: A 2.76; C 1.96; D 3.83; E 2.77; F 2.55; G 3.65; H 1.84; I 2; K 2.89; L 2.2; M 2.51; P 3.17; Q 3.66; R 2.29; S 2.65; T 2; V 2.46; W 1.06; Y 2.08
L19: A 4.07; C 3.32; D 4.63; E 4.34; F 2.47; G 3.98; H 4.14; I 3.39; K 3.99; M 3.16; N 3.49; P 3.31; Q 3.52; S 3.55; T 3.96; W 4.19; Y 2.95
T20: A 3; C 2.8; D 4.1; E 3.61; F 2.09; G 3.23; H 2.48; I 2.13; K 2.64; L 2.32; M 2.63; N 3.16; P 3.62; Q 3.83; R 3.36; S 3.29; V 2.42; W 2.18; Y 1.75
L21: A 4; C 3.97; D 4.43; E 4.5; F 2.88; G 4.36; H 3.76; I 2.41; K 3.79; M 3.79; N 4.32; Q 3.95; R 3.95; S 4.02; T 4.54; V 3.23; W 3.08; Y 3.96
K22: A 2.57; C 1.75; D 3.5; E 3.44; F 2.14; G 3.42; H 2.75; I 2.49; L 1.94; M 2.28; N 2.92; P 3.53; Q 2.92; R 2.28; S 3.34; T 2.43; Y 2.28
V23: A 3.78; C 3.41; D 4.72; E 4.27; F 2.5; G 4.43; H 4.2; I 2.46; K 2.97; L 3.03; M 3.33; N 3.34; P 3.79; Q 4.5; R 3.83; S 3.73; T 3.76; W 2.86; Y 2.73
C24: A 3.64; D 4.36; E 4.19; F 1.9; G 3.75; H 3.37

From the supplement of paper PMC10567573
